Read-outs that look alike come from different tables or passages of the source.
What was measured:
Synechocystis PCC6803 = experiment: Toxicity assay for erythritol: resistance of Synechocystis PCC6803, growth rate; type: cell-based; conditions: BG-11, pH 8.0, low light ~40 μE, 30° C.
Description: FIG. 4. Toxicity assay for erythritol. Synechocystis PCC6803 was inoculated in 10 ml BG-11 supplemented with 10 mM TES-buffer-NaOH (pH=8.0) and with 10 μg/ml kanamycine at an OD of 0.2. The culture was incubated at low light intensity (˜40 μE), 30° C. and shaking at 120 rpm. It was clearly shown (FIG. 4) that up to a concentration of 10 gr/L erythritol, cultures are not affected with respect to growth-rate.

[1] = substrate D-erythrose-4-P; cited from earlier work
[2] = substrate D-erythrose; cited from earlier work
[3] = co-factor NADPH; cited from earlier work

Molecule: OC[C@@H](O)[C@@H](O)CO [erythritol]
- erythritol concentration up to which cultures are not affected with respect to growth-rate (Synechocystis PCC6803): ≤ 10 gr/L

B1: YidA: phosphatase from Escherichia coli, SEQ ID NO: 1, 2 (protein, listed as Escherichia coli)
chain: MAIKLIAIDMDGTLLLPDHTISPAVKNAIAAARARGVNVVLTTGRPYAGVHNYLKELHMEQPGDYCITYNGALVQKAADGSTVAQTALSYDDYRFLEKLSREVGSHFHALDRTTLYTANRDISYYTVHESFVATIPLVFCEAEKMDPNTQFLKVMMIDEPAILDQAIARIPQEVKEKYTVLKSAPYFLEILDKRVNKGTGVKSLADVLGIKPEEIMAIGDQENDIAMIEYAGVGVAMDNAIPSVKEVANFVTKSNLEDGVAFAIEKYVLN
- D-erythrose-4-P Kcat [1]: 19 s⁻¹
- Km [1]: 19 µM

B2: TM1254: phosphatase from Thermotoga maritima MSB8, SEQ ID NO: 5, 6 (protein, listed as Thermotoga maritima)
chain: MEAVIFDMDGVLMDTEPLYFEAYRRVAESYGKPYTEDLHRRIMGVPEREGLPILMEALEIKDSLENFKKRVHEEKKRVFSELLKENPGVREALEFVKSKRIKLALATSTPQREALERLRRLDLEKYFDVMVFGDQVKNGKPDPEIYLLVLERLNVVPEKVVVFEDSKSGVEAAKSAGIERIYGVVHSLNDGKALLEAGAVALVKPEEILNVLKEVL
- D-erythrose-4-P Vmax [1]: 2.63 umol/min/mg protein
- Km [1]: 152 µM

B3: GLD1: reductase from Hypocrea jecorina (Trichoderma reesei), SEQ ID NO: 11, 12 (protein, listed as Hypocrea jecorina)
chain: MSSGRTVTLNTGYKIPQIGYGTWQAAPGEVGAGVFEALKVGYRHLDLAKVYGNQKEVGEGIKKALAEVPGLKREDIFITSKLWNNSHKPEDVEPALDDTLAELGLDYLDLYLIHWPVAFAPGADLFPKSEDGSEVQLNQNVSIVQTWKAMTELPKSKVRSVGVSNFTIEHLDAVIEATGVVPAVNQIERHPRLPNQPLIDYCAKKGIIITAYSAFGNNTKGLPLLVSSDEVKAVADNLSKKQGKTVTPAQVILAWSQIGGHTVIPKSVTKARIAENFQEVELDDEAIAALNKLGEKPQRFNIPYTYKPRWNINLFNTEEEKAAAHTAVIKL
- Km [2]: 16 to 134 µM

B4: ALR1: reductase from Aspergillus niger, SEQ ID NO: 13, 14 (protein)
chain: MSLGKKVTLNSGAQIPQLGFGTWQSAPGQVGDAVYEALKAGYRHLDLATIYQNQREVAEGIKRAYKDVPGLKREDIFITSKLWNSQHDPAVVEKALDECLAELELDYLDLYLVHWPVSFTTGSELFPLVKDSSVEGGDVVINDDISIVDTWKAMTQLPKSKARTVGVSNHMIPHLEAIINATGVVPAVNQIERHPVLQSNELIEYCQKKGIHVTAYSAFGNNGFGVPLLVTRPEVKEVAESASKRLGTTVTPAQVILAWSQVGGHSVIPKSVTPSRIHENFKEVELTPEEIAKVSELGKDRRRYNTPYVANTPRWDIDIFGEEEEKPAGHKVIV
modifications: Aspergillus niger
- D-erythrose Kcat [2]: 25 s⁻¹
- Km [2]: 139 µM

B5: ErCm: reductase from Candida magnolia JH110, SEQ ID NO: 9, 10 (protein, listed as Candida magnoliae)
chain: MSSTYTLTRLSAPSMVLNSGSQIPAVGYGLWKQQGSEAKDSVRCAIESGYRHLDCATAYQNHKEVGQAIREAGVPRDELWITSKVWGTHFDNPEEGLDDILEELGVEYLDLLLLHLPVAFKRNPEDPKQLRGLPVDHDMKYADVWARMEKLPKSKVRNIGVSNLTVRALDELLQTAKVTPAVNQVEMHPNLPQKKLLDYCKSKGIVVQAYSPLAQGQHENPVVTDIADDLGVSPAQVVLSWGALRGTNILPKSSTPSRIRENLELIQLSDDHMRRIDALARR
- Km [3]: 16 µM
- NADPH Kcat [3]: 48 s⁻¹
- D-erythrose Kcat [2]: 7.6 s⁻¹
- Km [2]: 8500 µM

B6: Gcy1p: erythrose reductase from Saccharomyces cerevisiae, SEQ ID NO: 7, 8 (protein, listed as Saccharomyces cerevisiae)
chain: MPATLHDSTKILSLNTGAQIPQIGLGTWQSKENDAYKAVLTALKDGYRHIDTAAIYRNEDQVGQAIKDSGVPREEIFVTTKLWCTQHHEPEVALDQSLKRLGLDYVDLYLMHWPARLDPAYIKNEDILSVPTKKDGSRAVDITNWNFIKTWELMQELPKTGKTKAVGVSNFSINNLKDLLASQGNKLTPAANQVEIHPLLPQDELINFCKSKGIVVEAYSPLGSTDAPLLKEPVILEIAKKNNVQPGHVVISWHVQRGYVVLPKSVNPDRIKTNRKIFTLSTEDFEAINNISKEKGEKRVVHPNWSPFEVFK
- Km [2]: 3400 µM

From patent US10273490B2, “Erythritol production in cyanobacteria” (Photanol B.V., priority 2014, dated 2019)
